{"source": "paper PMC11903878", "about": "“Structural mechanisms for centrosomal recruitment and organization of the microtubule nucleator γ-TuRC” (Nature Communications, 2025)", "key": {"[1]": {"molecular_target": "X. laevis 2×FLAG-TEV-NEDD1-3C-GCP3(1–240)/ALFA-MZT1 complex (X. laevis) (UniProt O73787)", "assay": "mass photometry; Refeyn TwoMP; purified NEDD1-N-GCP3/MZT1 diluted to a final concentration below 40 nM; tetramer of the fusion/MZT1 protomer"}, "[2]": {"molecular_target": "T1, human Augmin TII N-clamp with HAUS8∆[1-138] (human, UniProt Q9NVX0 1-118; Q7Z4H7 1-269; Q99871 1-299; Q9BT25 139-248)", "T1 construct": "HAUS2, human, codons 1 to 118; HAUS6, human, codons 1 to 269; HAUS7, human, codons 1 to 299, followed by a TEV-EGFP-8xHis cleavable tag; HAUS8, human, codons 1 to 248 with the N-terminal truncation HAUS8∆[1-138]; The range 139-248 of HAUS8 is worked out from the printed limits 1 to 248 and the deletion 1-138; also called Augmin N-clamp; Augmin TII N-clamp∆H8N; source: E. coli BL21 CodonPlus-RIL, …", "T1 sequence (Q9NVX0 1-118, chain 1 of 4)": "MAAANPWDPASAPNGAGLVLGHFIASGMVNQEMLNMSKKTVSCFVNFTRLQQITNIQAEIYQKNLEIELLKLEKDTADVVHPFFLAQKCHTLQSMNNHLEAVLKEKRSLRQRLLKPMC", "T1 sequence (Q7Z4H7 1-269, chain 2 of 4)": "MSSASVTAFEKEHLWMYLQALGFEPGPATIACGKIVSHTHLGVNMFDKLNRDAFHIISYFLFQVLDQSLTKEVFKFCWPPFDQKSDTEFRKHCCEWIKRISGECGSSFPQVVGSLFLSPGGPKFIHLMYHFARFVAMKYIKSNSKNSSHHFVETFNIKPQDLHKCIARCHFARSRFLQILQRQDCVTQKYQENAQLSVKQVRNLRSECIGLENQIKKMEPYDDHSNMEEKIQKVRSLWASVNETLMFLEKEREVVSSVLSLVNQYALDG", "T1 sequence (Q99871 1-299, chain 3 of 4)": "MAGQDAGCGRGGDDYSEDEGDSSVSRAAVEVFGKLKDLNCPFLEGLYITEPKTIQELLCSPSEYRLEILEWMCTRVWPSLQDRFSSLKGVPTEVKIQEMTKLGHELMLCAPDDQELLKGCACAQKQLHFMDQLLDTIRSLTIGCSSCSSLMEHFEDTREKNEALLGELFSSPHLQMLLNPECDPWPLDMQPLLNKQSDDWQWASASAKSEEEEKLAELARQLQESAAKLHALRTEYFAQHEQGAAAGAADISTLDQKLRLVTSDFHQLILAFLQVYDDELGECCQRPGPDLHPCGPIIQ", "T1 sequence (Q9BT25 139-248, chain 4 of 4)": "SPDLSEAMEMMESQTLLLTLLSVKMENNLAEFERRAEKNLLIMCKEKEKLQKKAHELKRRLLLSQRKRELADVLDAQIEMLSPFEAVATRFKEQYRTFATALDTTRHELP", "assay": "pull-down; 25 μg recombinant EGFP-tagged Augmin TII N-clamp∆H8N added to lysate of HEK293 cells overexpressing POC5-HA or POC5^mut-HA, captured on GFP binder beads, 1 hr 4 °C; 50 mM Tris pH 7.5, 150 mM NaCl; HA blot", "conditions": "one partner purified"}, "[3]": {"molecular_target": "the molecule itself", "assay": "cryo-EM structure; single particle analysis of the native γ-TuRC affinity-purified from X. laevis egg extract; particles with stoichiometric NEDD1/N-GCP3/MZT1 grapnel; AlphaFold2 models flexibly fitted (MDFF) into the density"}}, "data": [{"molecule": "X. laevis 2×FLAG-TEV-NEDD1-3C-GCP3(1–240)/ALFA-MZT1 complex (from UniProt O73787 1-240; Q5U4M5 1-72)", "values": [{"measurement": "stoichiometry N", "setting": "[1]", "result": 4}]}, {"molecule": "POC5^mut-HA (S224E, R227A, K228A, V231A, S234K, L235A) (natural protein, human, UniProt Q8NA72 1-575, looked up, POC5, human, with six point mutations in the predicted POC5-Augmin interface; source: HEK293 (Tet-On 3G), overexpressed, in lysate; not shown: HA, C-terminal, kept) MSSDEEKYSLPVVQNDSSRGSSVSSNLQEEYEELLHYAIVTPNIEPCASQSSHPKGELVPDVRISTIHDILHSQGNNSEVRETAIEVGKGCDFHISSHSKTDESSPVLSPRKPSHPVMDFFSSHLLADSSSPATNSSHTDAHEILVSDFLVSDENLQKMENVLDLWSSGLKTNIISELSKWRLNFIDWHRMEMRKEKEKHAAHLKQLCNQINELKELQKTFEIEIGAADEAISKASHAIGKQKEKIELMRTFFHWRIGHVRARQDVYEGKLADQYYQRTLLKKVWKVWRSVVQKQWKDVVERACQARAEEVCIQISNDYEAKVAMLSGALENAKAEIQRMQHEKEHFEDSMKKAFMRGVCALNLEAMTIFQNRNDAGIDSTNNKKEEYGPGVQGKEHSAHLDPSAPPMPLPVTSPLLPSPPAAVGGASATAVPSAASMTSTRAASASSVHVPVSALGAGSAATAASEEMYVPRVVTSAQQKAGRTITARITGRCDFASKNRISSSLAIMGVSPPMSSVVVEKHHPVTVQTIPQATAAKYPRTIHPESSTSASRSLGTRSAHTQSLTSVHSIKVVD", "values": [{"measurement": "fold reduction against wild-type", "setting": "[2]", "result": 3, "unit": "fold"}]}, {"molecule": "NEDD1 (neural precursor cell expressed, developmentally down-regulated 1), X. laevis, endogenous (natural protein, X. laevis (endogenous in egg extract), UniProt A0A8J0Q0Y8 1-671, looked up, NEDD1, X. laevis, endogenous; NM_001094388.1 is printed for the cDNA of the recombinant constructs; also called NEDD1^C (its C-terminus); source: endogenous, X. laevis egg extract; co-purified with the γ-TuRC) MESRGGGGRVRLPGTTMQDNIRFVSAGDDVKIWDYSSMTTVEQFNPHSASHPVSSLCWSSNNHFLVTASGSGDKIVVSSCKSKPVPLLELAEGKKQTCVNLNSSSQYVVSGGLDNTVNIWDLKSKRLHRSLKDHKDEVTCVTFNANDCYVASGSMSGEIILHNVTTNLSSTPFGHGSSQPIRHLKYSYVKKSLLGTVSDSGSVTLWDANSQNPYHVFESAHKAPASGICFSPVNDLLLVTVGLDKRIICYDVSSKILLQTVVAESPLTAVDFMPDGATLAVGSSRGKIYLYDLRMLSSPVKTVSAHKTSVQCIQFQHSNIYKSSKGPSSKSSILSTAVNKKPSTKTAAGGTQSANITKDLPPSAISSLPQPVMPVDSKVLRVNDDKSGFPRSTSLDIIPSKETDFAKTSDYKSIDSFGRSSLGDIFSPVRDDASHFRGAEDLSCKGNDLDYLPQFSTIPSSRRNPVGANTQGIHGSPLHLIIESPIKEEDESQDSELKTRKPQLLKQDFRESSSKPASVDQNNLNNSPINSVTRTPEAIEKTGHQILSQLKSDVPAHGTKIASPKVAATMSTQLASSLSEKIADTLASDRTGAPLTAIQINFIKNMIEETLDDFREACHRDIVNLQVEMIKQFHIQSSEIQMLLERYSLNESLVSEIEKLREENKRLRANF", "values": [{"measurement": "stoichiometry N", "setting": "[3]", "result": 4}]}]}
